Patent publication US20150344570A1 (published 2015)

Assays:
Assay in all cases: SPR (Biacore); KD of H240-Kn033/H240-Hl033/L73-k0 divided by KD of this variant
FcgRIIb = target: T1, FcgRIIb (human, UniProt P31994 43-217)
T1 construct: extracellular domain; also called FcγRIIb; 2b; not shown: His tag attached to the C terminus
T1 sequence (looked up): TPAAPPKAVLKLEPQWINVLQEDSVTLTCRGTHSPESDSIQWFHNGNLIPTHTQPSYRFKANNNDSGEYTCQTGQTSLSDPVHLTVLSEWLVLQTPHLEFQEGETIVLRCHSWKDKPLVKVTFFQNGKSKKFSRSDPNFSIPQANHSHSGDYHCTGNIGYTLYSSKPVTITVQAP
Experimental: (§1) H240-Kn204/H240-Hl211/L73-k0 and H240-Kn205/H240-Hl212/L73-k0 were prepared according to the method of Reference Example 1, by combining H240-Kn204 as one of the H chains and L73-k0 as the L chains with H240-Hl211 as the other H chain, and by combining H240-Kn205 as one of the H chains and L73-k0 as the L chains with H240-Hl212 as the other H chain, and then expressing them. The binding of the prepared variants to FcgRIa, FcgRIIaR, FcgRIIaH, FcgRIIb, FcgRIIIaF, and FcgRIIIaV was measured according to the method of Reference Example 8.
(§2) “fold 2aR”, “fold 2aH”, “fold 2b”, “fold 3aF”, and “fold 3aV” show the relative binding activity of each variant to FcgRIIaR, FcgRIIaH, FcgRIIb, FcgRIIIaF, and FcgRIIIaV, respectively, when the binding activity of H240-Kn033/H240-Hl033/L73-k0, a variant produced by introducing only alterations that promote formation of a heterodimerized antibody into a native IgG1, is defined as 1. Specifically, they are values obtained by dividing the KD value of H240-Kn033/H240-Hl033/L73-k0 for each FcgR by the KD value of an individual variant for each FcgR.
(§3) Analysis of interaction between objective antibody and the FcγR was carried out using Biacore T100 (GE Healthcare), Biacore T200, Biacore A100, and Biacore 4000. HBS-EP+ (GE Healthcare) was used as the running buffer, and the measurement temperature was set to 25° C. Chips produced by immobilizing the antigen peptide by the amine coupling method to a Series S sensor Chip CM5 (GE Healthcare), chips produced by allowing preliminarily biotinylated antigen peptides to interact with and immobilize onto a Series S Sensor Chip SA (certified) (GE Healthcare), chips produced by immobilizing Protein L (ACTIGEN, BioVision) to Series S Sencor Chip CM5 (GE Healthcare), or chips produced by immobilizing Protein A/G (Thermo Scientific) to Series S Sencor Chip CM5 (GE Healthcare) were used. Antibodies of interest were captured onto these chips, and allowed to interact to each FcγR diluted with running buffer.

FcgRIIaR = target: T2, FcgRIIaR (human, UniProt P12318 34-217)
T2 construct: extracellular domain; also called FcγRIIa R; FcgRIIa type R; not shown: His tag attached to the C terminus
T2 sequence (looked up): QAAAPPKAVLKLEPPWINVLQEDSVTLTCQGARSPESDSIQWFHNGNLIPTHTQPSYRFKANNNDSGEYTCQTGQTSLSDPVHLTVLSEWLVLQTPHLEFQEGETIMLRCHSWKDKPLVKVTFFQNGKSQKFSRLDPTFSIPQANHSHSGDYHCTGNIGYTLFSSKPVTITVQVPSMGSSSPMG
Experimental: as §1, §2, §3

FcgRIIIaF = target: T3, FcgRIIIaF (human, UniProt P08637 17-208)
T3 construct: extracellular domain; also called FcγRIIIa F; 3aF; not shown: His tag attached to the C terminus
T3 sequence (P08637 17-208): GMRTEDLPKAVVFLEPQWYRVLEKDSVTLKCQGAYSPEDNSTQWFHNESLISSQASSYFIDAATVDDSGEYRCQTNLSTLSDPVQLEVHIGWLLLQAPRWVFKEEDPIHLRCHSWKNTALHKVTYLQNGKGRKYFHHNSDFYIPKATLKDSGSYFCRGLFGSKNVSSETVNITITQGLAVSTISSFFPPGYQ
Experimental: as §1, §2, §3

FcgRIIaH = target: T4, FcgRIIaH (human, UniProt P12318 34-217)
T4 construct: extracellular domain; also called FcγRIIa H; FcgRIIa type H; not shown: His tag attached to the C terminus
T4 sequence (looked up): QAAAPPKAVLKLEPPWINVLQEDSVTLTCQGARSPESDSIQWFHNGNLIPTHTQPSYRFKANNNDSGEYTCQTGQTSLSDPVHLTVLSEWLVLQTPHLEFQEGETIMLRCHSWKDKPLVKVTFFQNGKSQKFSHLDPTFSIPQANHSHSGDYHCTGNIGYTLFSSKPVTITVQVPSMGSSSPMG
Experimental: as §1, §2, §3

FcgRIIIaV = target: T5, FcgRIIIaV (human, UniProt P08637 17-208)
T5 construct: extracellular domain; also called FcγRIIIa V; 3aV; not shown: His tag attached to the C terminus
T5 sequence (P08637 17-208 F176V limits assumed): as the sequence (P08637 17-208) above, with F160V counted along it
Experimental: as §1, §2, §3

B1: H240-Kn037/H240-Hl036/L73-k0 (antibody, human IgG1, kappa)
heavy 1: QDQLVQSGAEVKKPGASVKVSCKASGFNIKDTYIQWVRQAPGQGLEWMGRIDPLRKQTKYREKFEGRVTITADTSTNTAYMELSSLRSEDTAVYYCVRSGREFDYWGQGTLVTVSSASTKGPSVFPLAPSSKSTSGGTAALGCLVKDYFPEPVTVSWNSGALTSGVHTFPAVLQSSGLYSLSSVVTVPSSSLGTQTYICNVNHKPSNTKVDKKVEPKSCDKTHTCPPCPAPELLAGPDVFLFPPKPKDTLMISRTPEVTCVVVDVSHEDPEVKFNWYVDGVEVHNAKTKPREEQYNSTYRVVSVLTVLHQDWLNGKEYKCKVSNKALPAPEEKTISKAKGQPREPQVCTLPPSRDELTKNQVSLWCLVKGFYPSDIAVEWESNGQPENNYKTTPPVLDSDGSFFLYSKLTVDKSRWQQGNVFSCSVMHEALHNHYTQKSLSLSP
heavy 2: QDQLVQSGAEVKKPGASVKVSCKASGFNIKDTYIQWVRQAPGQGLEWMGRIDPLRKQTKYREKFEGRVTITADTSTNTAYMELSSLRSEDTAVYYCVRSGREFDYWGQGTLVTVSSASTKGPSVFPLAPSSKSTSGGTAALGCLVKDYFPEPVTVSWNSGALTSGVHTFPAVLQSSGLYSLSSVVTVPSSSLGTQTYICNVNHKPSNTKVDKKVEPKSCDKTHTCPPCPAPELLAGPDVFLFPPKPKDTLMISRTPEVTCVVVDVSHEDPEVKFNWYVDGVEVHNAKTKPREEQYNSTYRVVSVLTVLHQDWLNGKEYKCKVSNKALPAPEEKTISKAKGQPREPQVYTLPPSRCELTKNQVSLSCAVKGFYPSDIAVEWESNGQPENNYKTTPPVLDSDGSFFLVSKLTVDKSRWQQGNVFSCSVMHEALHNHYTQKSLSLSP
light: DIQMTQSPSSLSASVGDRVTITCRASQDIHKYIAWYQQKPGQAPRLLIQYTSTLQPGVPSRFSGSGSGTDYTFTISSLQPEDIATYYCLQYEQLRTFGGGTKVEIKRTVAAPSVFIFPPSDEQLKSGTASVVCLLNNFYPREAKVQWKVDNALQSGNSQESVTEQDSKDSTYSLSSTLTLSKADYEKHKVYACEVTHQGLSSPVTKSFNRGEC
fold 2b (FcgRIIb): 8.7 fold
fold 2aR (FcgRIIaR): 25.5 fold
fold 3aF (FcgRIIIaF): 13.8 fold
fold 2aH (FcgRIIaH): 11.3 fold
fold 3aV (FcgRIIIaV): 7.1 fold

B2: H240-Kn120/H240-Hl068/L73-k0 (antibody, human IgG1, kappa)
heavy 1: QDQLVQSGAEVKKPGASVKVSCKASGFNIKDTYIQWVRQAPGQGLEWMGRIDPLRKQTKYREKFEGRVTITADTSTNTAYMELSSLRSEDTAVYYCVRSGREFDYWGQGTLVTVSSASTKGPSVFPLAPSSKSTSGGTAALGCLVKDYFPEPVTVSWNSGALTSGVHTFPAVLQSSGLYSLSSVVTVPSSSLGTQTYICNVNHKPSNTKVDKKVEPKSCDKTHTCPPCPAPEYYWGPMVFLFPPKPKDTLMISRTPEVTCVVVDVSDEDPEVKFNWYVDGVEVHNAKTKPREEQYNATYRVVSVLTVLHQDWLNGKEYKCKVSNKDLPAPIEKTISKAKGQPREPQVCTLPPSRDELTKNQVSLWCLVKGFYPSDIAVEWESNGQPENNYKTTPPVLDSDGSFFLYSKLTVDKSRWQQGNVFSCSVMHEALHNHYTQKSLSLSP
heavy 2: QDQLVQSGAEVKKPGASVKVSCKASGFNIKDTYIQWVRQAPGQGLEWMGRIDPLRKQTKYREKFEGRVTITADTSTNTAYMELSSLRSEDTAVYYCVRSGREFDYWGQGTLVTVSSASTKGPSVFPLAPSSKSTSGGTAALGCLVKDYFPEPVTVSWNSGALTSGVHTFPAVLQSSGLYSLSSVVTVPSSSLGTQTYICNVNHKPSNTKVDKKVEPKSCDKTHTCPPCPAPELLGGPSVFLFPPKPKDTLMISRTPEVTCVVVDVSHEEPEVKFNWYVDGVEVHNAKTKPREEQYNSTYRVVSVLTVLHQDWLNGKEYKCKVSNDALPKPIEETISKAKGQPREPQVYTLPPSRCELTKNQVSLSCAVKGFYPSDIAVEWESNGQPENNYKTTPPVLDSDGSFFLVSKLTVDKSRWQQGNVFSCSVMHEALHNHYTQKSLSLSP
light: DIQMTQSPSSLSASVGDRVTITCRASQDIHKYIAWYQQKPGQAPRLLIQYTSTLQPGVPSRFSGSGSGTDYTFTISSLQPEDIATYYCLQYEQLRTFGGGTKVEIKRTVAAPSVFIFPPSDEQLKSGTASVVCLLNNFYPREAKVQWKVDNALQSGNSQESVTEQDSKDSTYSLSSTLTLSKADYEKHKVYACEVTHQGLSSPVTKSFNRGEC
notes: Anti-epiregulin heterodimerized IgG1, knobs-into-holes
fold 2b (FcgRIIb): 22 fold
fold 2aR (FcgRIIaR): 32.2 fold
fold 3aF (FcgRIIIaF): 121 fold
fold 2aH (FcgRIIaH): 11.8 fold
fold 3aV (FcgRIIIaV): 146 fold

B3: H240-Kn184/H240-Hl068/L73-k0 (antibody, human IgG1, kappa)
heavy 1: QDQLVQSGAEVKKPGASVKVSCKASGFNIKDTYIQWVRQAPGQGLEWMGRIDPLRKQTKYREKFEGRVTITADTSTNTAYMELSSLRSEDTAVYYCVRSGREFDYWGQGTLVTVSSASTKGPSVFPLAPSSKSTSGGTAALGCLVKDYFPEPVTVSWNSGALTSGVHTFPAVLQSSGLYSLSSVVTVPSSSLGTQTYICNVNHKPSNTKVDKKVEPKSCDKTHTCPPCPAPEEYWGPMVFLFPPKPKDTLMISRTPEVTCVVVDVSDEDPEVKFNWYVDGVEVHNAKTKPREEQYNATYRVVSVLTVLHQDWLNGKEYKCKVSNKDLPAPIEKTISKAKGQPREPQVCTLPPSRDELTKNQVSLWCLVKGFYPSDIAVEWESNGQPENNYKTTPPVLDSDGSFFLYSKLTVDKSRWQQGNVFSCSVMHEALHNHYTQKSLSLSP
heavy 2: QDQLVQSGAEVKKPGASVKVSCKASGFNIKDTYIQWVRQAPGQGLEWMGRIDPLRKQTKYREKFEGRVTITADTSTNTAYMELSSLRSEDTAVYYCVRSGREFDYWGQGTLVTVSSASTKGPSVFPLAPSSKSTSGGTAALGCLVKDYFPEPVTVSWNSGALTSGVHTFPAVLQSSGLYSLSSVVTVPSSSLGTQTYICNVNHKPSNTKVDKKVEPKSCDKTHTCPPCPAPELLGGPSVFLFPPKPKDTLMISRTPEVTCVVVDVSHEEPEVKFNWYVDGVEVHNAKTKPREEQYNSTYRVVSVLTVLHQDWLNGKEYKCKVSNDALPKPIEETISKAKGQPREPQVYTLPPSRCELTKNQVSLSCAVKGFYPSDIAVEWESNGQPENNYKTTPPVLDSDGSFFLVSKLTVDKSRWQQGNVFSCSVMHEALHNHYTQKSLSLSP
light: DIQMTQSPSSLSASVGDRVTITCRASQDIHKYIAWYQQKPGQAPRLLIQYTSTLQPGVPSRFSGSGSGTDYTFTISSLQPEDIATYYCLQYEQLRTFGGGTKVEIKRTVAAPSVFIFPPSDEQLKSGTASVVCLLNNFYPREAKVQWKVDNALQSGNSQESVTEQDSKDSTYSLSSTLTLSKADYEKHKVYACEVTHQGLSSPVTKSFNRGEC
notes: as for B2
fold 2b (FcgRIIb): 22 fold
fold 2aR (FcgRIIaR): 27.4 fold
fold 3aF (FcgRIIIaF): 132 fold
fold 2aH (FcgRIIaH): 7.4 fold
fold 3aV (FcgRIIIaV): 141 fold
